Laboratory results: article PMC4395114 (PLoS Pathogens, 2015)

Target: the molecule itself
Assay: SEC + other: negative stain electron microscopy

B1: RNA-free recombinant WT NP (NΔ7NP, C-terminal His tag), influenza A/WSN/33 (natural protein)
chain: RSYEQMETDGERQNATEIRASVGKMIGGIGRFYIQMCTELKLSDYEGRLIQNSLTIERMVLSAFDERRNKYLEEHPSAGKDPKKTGGPIYRRVDGKWMRELILYDKEEIRRIWRQANNGDDATAGLTHMMIWHSNLNDATYQRTRALVRTGMDPRMCSLMQGSTLPRRSGAAGAAVKGVGTMVMELIRMIKRGINDRNFWRGENGRRTRIAYERMCNILKGKFQTAAQRAMVDQVRESRNPGNAEFEDLIFLARSALILRGSVAHKSCLPACVYGPAVASGYDFEREGYSLVGIDPFRLLQNSQVYSLIRPNENPAHKSQLVWMACHSAAFEDLRVSSFIRGTKVVPRGKLSTRGVQIASNENMETMESSTLELRSRYWAIRTRSGGNTNQQRASSGQISIQPTFSVQRNLPFDRPTIMAAFTGNTEGRTSDMRTEIIRLMESARPEDVSFQGRGVFELSDEKAASPIVPSFDMSNEGSYFFGDNAEEYDN
With B1 the “stoichiometry N” value was 3 to 6.
